Test results from US20160083473A1 (NUMAB THERAPEUTICS, published 2016).

B1: PRO165, bispecific anti-IL23R x CD3ε single-chain diabody (bispecific antibody)
chain: DIQMTQSPSSLSASVGDRVTITCQASENIYSFLAWYQQKPGKAPKLLIYSASKLAAGVPSRFSGSGSGTDFTLTISSLQPEDFATYYCQQTNRYSNPDIYNVFGQGTKLTVLGGGGGSEVQLVESGGGLVQPGGSLRLSCAASGFPLSSYAMIWVRQAPGKGLEWIGMILRAGNIYYASWVKGRFTISRDNSKNTVYLQMNSLRAEDTAVYYCARRHYNREGYPIGIGDLWGQGTLVTVSSGGGGSGGGGSGGGGSGGGGSDIQMTQSPSSLSASVGDRVTITCQSSESVYNNKRLSWYQQKPGKAPKLLIYTASSLASGVPSRFSGSGSGTDFTLTISSLQPEDFATYYCQGEFTCSNADCFTFGQGTKLTVLGGGGGSEVQLVESGGGLVQPGGSLRLSCAASGIDFNSNYYMCWVRQAPGKGLEWIGCIYVGSHVNTYYANWAKGRFTISRDNSKNTVYLQMNSLRAEDTAVYYCATSGSSVLYFKFWGQGTLVTVSS
notes: VL(anti-IL23R 14-11-D07-sc01)-G4S-VH(anti-CD3 clone 6)-(G4S)4-VL(anti-CD3 clone 6)-G4S-VH(anti-IL23R 14-11-D07-sc01); also called scDb
B2: humanized anti-IL23R scFv 14-11-D07-sc01 (scFv, V domains shown)
VH: EVQLVESGGGLVQPGGSLRLSCAASGIDFNSNYYMCWVRQAPGKGLEWIGCIYVGSHVNTYYANWAKGRFTISRDNSKNTVYLQMNSLRAEDTAVYYCATSGSSVLYFKFWGQGTLVTVSS
VL: DIQMTQSPSSLSASVGDRVTITCQASENIYSFLAWYQQKPGKAPKLLIYSASKLAAGVPSRFSGSGSGTDFTLTISSLQPEDFATYYCQQTNRYSNPDIYNVFGQGTKLTVLG
notes: tested as a single-chain Fv; CDR graft on a Vk1/VH3 human acceptor framework

Assays:
[1] = target: T1, human heterodimeric single-chain CD3γδ extracellular domain (produced in-house) (human); assay: SPR, human single-chain CD3 ECD immobilised by amine coupling, scDb injected
T1 chain 1: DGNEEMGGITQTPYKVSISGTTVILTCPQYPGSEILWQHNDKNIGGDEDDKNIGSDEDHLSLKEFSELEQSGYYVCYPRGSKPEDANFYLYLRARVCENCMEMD
T1 chain 2: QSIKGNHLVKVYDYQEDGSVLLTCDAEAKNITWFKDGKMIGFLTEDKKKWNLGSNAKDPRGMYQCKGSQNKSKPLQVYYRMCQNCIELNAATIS

[2] = target: T2, recombinant human IL23R Fc chimera (R&D Systems, Cat. No. 1400-IR-050) (human, UniProt Q5VWK5 24-353); assay: SPR, IL23R Fc chimera captured by anti-human IgG Fc, scFv injected
T2 construct: bought
Method: (§1) Binding affinities of anti-IL23R scFvs were measured by surface plasmon resonance (SPR) using a MASS-1 SPR instrument (Sierra Sensors). […] After immobilization, 1 ug/ml recombinant human IL23R Fc chimera (R&D Systems, Cat. No. 1400-IR-050) was captured by the anti-human IgG antibody while a second immobilized channel served as a control where the capture was replaced by buffer. Two-fold serial dilutions of human scFvs ranging from 180 to 2.81 nM were injected into both flow cells for 3 min and dissociation of the scFvs from the chimera on the sensor chip was allowed to proceed for 700 sec. After each injection cycle, surfaces were regenerated with two 1 min injections of 10 mM glycine-HCl pH 1.5. In a similar manner the affinities for cynomolgus and mouse IL23R Fc chimera (R&D Systems, Cat. No. 1686-MR-050) was measured. The apparent dissociation (kd) and association (ka) rate constants and the apparent dissociation equilibrium constant (KD) were calculated with the MASS-1 analysis software (Analyzer, Sierra Sensors) using one-to-one Langmuir binding model.

[3] = target: T3, cynomolgus IL23R Fc chimera (cynomolgus monkey, UniProt G7NWY5 24-353); assay: as above
T3 construct: source of the cynomolgus chimera is not clearly stated; also called cyno IL23R; not shown: Fc part of the chimera
T3 sequence: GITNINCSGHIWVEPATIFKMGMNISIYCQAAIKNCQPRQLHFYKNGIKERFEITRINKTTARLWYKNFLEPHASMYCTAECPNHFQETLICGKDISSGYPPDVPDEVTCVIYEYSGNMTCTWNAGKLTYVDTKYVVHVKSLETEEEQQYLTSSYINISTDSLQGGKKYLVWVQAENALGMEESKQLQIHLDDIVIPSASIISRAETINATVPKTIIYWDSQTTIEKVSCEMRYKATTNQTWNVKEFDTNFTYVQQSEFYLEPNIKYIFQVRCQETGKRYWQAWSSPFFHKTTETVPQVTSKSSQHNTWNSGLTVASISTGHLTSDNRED
Method: as §1

[4] = target: T4, mouse IL23R Fc chimera (R&D Systems, Cat. No. 1686-MR-050) (mouse, UniProt Q8K4B4 24-372); assay: as above
T4 construct: bought; Fc part of the bought chimera not given
T4 sequence (looked up): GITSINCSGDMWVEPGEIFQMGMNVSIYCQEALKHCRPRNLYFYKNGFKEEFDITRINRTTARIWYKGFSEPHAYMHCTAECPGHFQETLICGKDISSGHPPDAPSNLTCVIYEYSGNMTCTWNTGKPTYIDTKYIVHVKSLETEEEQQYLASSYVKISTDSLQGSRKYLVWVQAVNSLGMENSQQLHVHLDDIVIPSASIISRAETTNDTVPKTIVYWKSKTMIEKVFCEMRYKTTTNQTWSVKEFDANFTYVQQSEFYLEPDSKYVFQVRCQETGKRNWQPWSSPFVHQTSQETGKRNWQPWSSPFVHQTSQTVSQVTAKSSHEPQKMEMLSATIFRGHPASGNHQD
Method: as §1

Row | Binder | Kd [1] | koff [1] | kon [1] | Kd [2] | koff [2] | kon [2] | Kd [3] | koff [3] | kon [3] | Kd [4] | koff [4] | kon [4]
1 | B1 | 11.6 nM | 0.00126 s⁻¹ | 109000 M⁻¹ s⁻¹ | – | – | – | – | – | – | – | – | –
2 | B2 | – | – | – | 0.116 nM | 0.000259 s⁻¹ | 2.24e+06 M⁻¹ s⁻¹ | 0.124 nM | 0.000361 s⁻¹ | 2.92e+06 M⁻¹ s⁻¹ | 2.21 nM | 0.00418 s⁻¹ | 1.89e+06 M⁻¹ s⁻¹
